{
  "source": "patent US12697350B2",
  "about": "“Methods and compositions for treating a premature termination codon-mediated disorder” (Tevard Biosciences, Inc., priority 2019, dated 2026)",
  "molecules": {"B1": {"name": "tRNA-Arg-TCT-2-1-TCA-SUP_no intron (nucleic acid)", "chain": "GGCTCCGTGGCGCAATGGATAGCGCATTGGACTTCAAATTCAAAGGTTCCGGGTTCGAGTCCCGGCGGAGTCG", "modifications": "chemistry not fully specified"}},
  "key": {"EGFP-R96X-TGA": {"test_system": "EGFP-R96X-TGA", "experiment": "Readthrough of suppressor tRNA delivered by AAV-PHP.eB, EGFP-R96X-TGA, 293 cells pre-transfected with LY6A (FIG. 41)", "assay_type": "cell-based, human", "text": "FIG. 40 is a schematic representation of constructs that were packaged into AAV-PHP.eB capsids. Construct 262 contains wild-type EGFP driven by an EF1a promoter. Construct 269 contains EGFP-R96X-TGA driven by an EF1a promoter (SEQ ID NO: 177) and two copies of the ArgTCA suppressor tRNA #115 (SEQ ID NO: 18) (“TCA-115”) in the context of 55 bps upstream flanking genomic DNA from tRNA-Tyr-GTA-5-1 (SEQ ID NO: 900). Both constructs contain 5′ and 3′ ITR sequences from AAV2, which provide cis-acting elements for AAV replication and packaging.\nFIG. 41 depicts readthrough activity of suppressor tRNAs delivered by AAV. AAV-PHP.eB containing the constructs shown in FIG. 40 was produced by Vigene Biosciences. 48 hours prior to AAV transduction, 293 cells were pre-transfected with an expression construct containing the LY6A gene, which is required for robust transduction by AAV-PHP.eB. Cells were transduced at an MOI of 1E5 vg/cell. Where indicated, cells were also transfected with an expression construct containing the EGFP-R96X-TGA reporter (SEQ ID NO: 31) and an expression construct containing the ArgTCA suppressor tRNA #115 (SEQ ID NO: 18). At 72 hours post transduction, the EGFP signal was quantified by immunofluorescence. Live cell images were captured on an EVOS FL Auto 2 imaging system. […]"}, "EGFP-R96X-TGA reporter": {"test_system": "EGFP-R96X-TGA reporter", "experiment": "Flanking sequence length (TABLE 11 vectors Flank300/20/10/0), EGFP-R96X-TGA reporter, Neuro-2a cells (FIGS. 26A-B)", "assay_type": "cell-based, mouse", "conditions": "single copy, Flank0 vector (random sequence 5′ to tRNA), ~24 hours post transfection", "procedure": "“GFP-PTC” indicates cells transfected with the EGFP-R96X-TGA reporter alone (SEQ ID NO: 31), “GFP” indicates cells transfected with a version of the EGFP reporter that lacks a PTC. Readthrough activity was measured by flow cytometry at ~24 hours post transfection. Data are presented as histograms displaying the frequency distribution of the data versus fluorescence intensity for cells expressing EGFP above background.\nExpression vectors were generated that encoded an EGFP-R96X-TGA reporter (SEQ ID NO: 31, as described in Example 1) and a single copy of the ArgTCA suppressor tRNA #115 (tRNA-Arg-TCT-2-1-TCA-SUP_no intron, SEQ ID NO: 18, as described in Example 1). The expression vectors included sequences immediately 5′ and 3′ to the tRNA coding sequence that were in each instance derived from the genomic DNA that is 5′ and 3′ to the mouse tRNA-Arg-TCG-1-1 gene but were of varying length.\nThe expression vectors in TABLE 11 were tested for PTC readthrough activity by flow cytometry in Neuro-2a cells. Transfections were performed using the Lipofectamine 3000 Transfection Reagent according to the manufacturer's protocol."}},
  "data": [
    {"molecule": "B1", "values": [
      {"measurement": "readthrough activity, AAV delivery versus transient transfection", "setting": "EGFP-R96X-TGA; 293 cells pre-transfected with LY6A", "result": "comparable readthrough activity when delivered by AAV or transient transfection"},
      {"measurement": "PTC readthrough based on GFP intensity", "setting": "EGFP-R96X-TGA; AAV-PHP.eB with construct 269 (two copies of #115), MOI 1E5 vg/cell, 72 hours post transduction, normalized to construct 262 (wild-type EGFP)", "result": "~ 13.2%"},
      {"measurement": "suppressor tRNA activity with random 5′ leader sequence", "setting": "EGFP-R96X-TGA reporter", "result": "exhibits activity even with a random 5′ leader sequence"}
    ]}
  ]
}
